Measured values as given in the Immune Epitope Database (IEDB).

Legend:
HLA-B*53:01 = experiment: IEDB peptide-MHC binding, purified MHC/competitive/fluorescence; ≥ and ≤ were set here for values at or beyond the usual limits of such assays; conditions: source organism: human gammaherpesvirus 4
HLA-B*18:01 [1] = experiment: IEDB peptide-MHC binding, purified MHC/competitive/fluorescence; filed as Kd, often an IC50 or EC50 that approximates it; ≥ and ≤ were set here for values at or beyond the usual limits of such assays; conditions: source organism: Human herpesvirus 4 strain B95-8
HLA-A*01:01 = experiment: IEDB peptide-MHC binding, purified MHC/direct/fluorescence; filed as Kd, often an IC50 or EC50 that approximates it; ≥ and ≤ were set here for values at or beyond the usual limits of such assays
HLA-A*02:01 = experiment: as above; conditions: source organism: Mycobacterium tuberculosis
HLA-A*11:01 = experiment: as above
HLA-A*31:01 = experiment: as above
HLA-B*07:02 = experiment: as above; conditions: source organism: Mycobacterium tuberculosis
HLA-B*15:01 = experiment: as above
HLA-B*15:17 = experiment: as above
HLA-B*18:01 [2] = experiment: as above
HLA-B*27:05 = experiment: as above
HLA-B*40:01 = experiment: as above
HLA-B*46:01 = experiment: as above
HLA-B*48:01 = experiment: as above
HLA-B*57:01 = experiment: as above
HLA-B*58:01 = experiment: as above
HLA-A*26:02 = experiment: IEDB peptide-MHC binding, purified MHC/competitive/fluorescence; filed as Kd, often an IC50 or EC50 that approximates it; ≥ and ≤ were set here for values at or beyond the usual limits of such assays; conditions: source organism: Mycobacterium tuberculosis variant bovis BCG str. Pasteur 1173P2
HLA-A*26:03 = experiment: as above; conditions: source organism: Mycobacterium tuberculosis variant bovis BCG str. Pasteur 1173P2
HLA-A*68:02 = experiment: as above; conditions: source organism: Mycobacterium tuberculosis variant bovis BCG str. Pasteur 1173P2
HLA-A*69:01 [3] = experiment: as above; conditions: source organism: Mycobacterium tuberculosis variant bovis BCG str. Pasteur 1173P2
HLA-A*03:01 = experiment: IEDB peptide-MHC binding, purified MHC/direct/fluorescence; filed as Kd, often an IC50 or EC50 that approximates it; ≥ and ≤ were set here for values at or beyond the usual limits of such assays; conditions: source organism: Influenza A virus (A/whooper swan/Mongolia/6/05(H5N1))
HLA-A*26:01 = experiment: as above; conditions: source organism: Influenza A virus(A/swine/Shandong/fZC/2003(H9N2))
HLA-A*69:01 [4] = experiment: as above; conditions: source organism: Influenza A virus (A/whooper swan/Mongolia/6/05(H5N1))
HLA-A*80:01 = experiment: as above; conditions: source organism: Influenza A virus (A/whooper swan/Mongolia/6/05(H5N1))
HLA-C*05:01 = experiment: as above; conditions: source organism: Influenza A virus (A/Fort Monmouth/1/1947-mouse adapted(H1N1))
HLA-A*02:03 = experiment: IEDB peptide-MHC binding, purified MHC/competitive/fluorescence; filed as Kd, often an IC50 or EC50 that approximates it; ≥ and ≤ were set here for values at or beyond the usual limits of such assays; conditions: source organism: Influenza A virus (A/Fort Monmouth/1/1947-mouse adapted(H1N1))
[5] = source organism: Mycobacterium tuberculosis
[6] = source organism: Influenza A virus (A/whooper swan/Mongolia/6/05(H5N1))

Sequence LASAMRMLW has an IC50 (HLA-B*53:01) of 0.0783 µM and a Kd (HLA-B*18:01 [1]) of 2.27 µM.

In the case of QVFKGVVIR, the Kd (HLA-A*01:01; [5]) is reported as ≥ 20 µM, the Kd (HLA-A*02:01) is reported as ≥ 20 µM and the Kd (HLA-A*11:01; [5]) is reported as 0.694 µM. For the same sequence, the Kd (HLA-A*31:01; [5]) was 0.101 µM, the Kd (HLA-B*07:02) was ≥ 20 µM and the Kd (HLA-B*15:01; [5]) was ≥ 20 µM. For the same sequence, the Kd (HLA-B*15:17; [5]) was ≥ 20 µM, the Kd (HLA-B*18:01 [2]; [5]) was ≥ 20 µM and the Kd (HLA-B*27:05; [5]) was ≥ 20 µM. The Kd (HLA-B*40:01; [5]) was ≥ 20 µM, the Kd (HLA-B*46:01; [5]) was ≥ 20 µM and the Kd (HLA-B*48:01; [5]) was ≥ 20 µM. For the same sequence, the Kd (HLA-B*57:01; [5]) was ≥ 20 µM, the Kd (HLA-B*58:01; source organism: Mycobacterium tuberculosis str. Haarlem) was ≥ 20 µM and the Kd (HLA-A*26:02) was ≥ 20 µM. The Kd (HLA-A*26:03) was ≥ 20 µM, the Kd (HLA-A*68:02) was 1.77 µM and the Kd (HLA-A*69:01 [3]) was ≥ 20 µM.

SSDDFALIV was tested, and the Kd (HLA-A*01:01; [6]) was 0.113 µM, the Kd (HLA-A*03:01) was ≥ 20 µM and the Kd (HLA-A*11:01; [6]) was ≥ 20 µM. The Kd (HLA-A*26:01) was ≥ 20 µM, the Kd (HLA-A*31:01; [6]) was ≥ 20 µM and the Kd (HLA-A*69:01 [4]) was 0.0188 µM. For the same sequence, the Kd (HLA-A*80:01) was 0.224 µM, the Kd (HLA-B*15:01; [6]) was ≥ 20 µM and the Kd (HLA-B*15:17; [6]) was 0.229 µM. For the same sequence, the Kd (HLA-B*18:01 [2]; [6]) was ≥ 20 µM, the Kd (HLA-B*27:05; [6]) was ≥ 20 µM and the Kd (HLA-B*40:01; [6]) was ≥ 20 µM. For the same sequence, the Kd (HLA-B*46:01; [6]) was ≥ 20 µM, the Kd (HLA-B*48:01; [6]) was ≥ 20 µM and the Kd (HLA-B*57:01; [6]) was ≥ 20 µM. For the same sequence, the Kd (HLA-B*58:01; [6]) was ≥ 20 µM, the Kd (HLA-C*05:01) was 0.016 µM and the Kd (HLA-A*02:03) was ≥ 20 µM.
